Literature values in publication PMC9796269 (British Journal of Clinical Pharmacology, 2022).

Substance: CNP‐22: endogenous C‐type natriuretic peptide form, susceptible to Neprilysin degradation
- calculated half‐life (clearance in human plasma): 2.6 min
